Experimental data taken from the DeepSol protein solubility set.

Experiment: soluble on expression in E. coli; label from the status in PepcDB or PDB records

Sequence | soluble on expression in E. coli
MTFSDPMDPSIPIFQHHEEEEAGPSTTIKAEEEDGPCCLVCGRVANTGHHYGVTACLGCKTFFRRVVLQKNSPKCKYKNHCRLEKSVNAKRLCRSCRYQKCLEVGMTEDALHPCRDVIGRRVRNNSSDSSPISSPPSIPTPLSICKLMNLSEGDHKLLQTITDMDTDIRTRTAHILGEPANGNEQIHFYSPTPDYTNVIVNHGIGPSLKVDILLLREWVDRIPGFRELSERFQQHLMHRFCLRYTVIEHGLFTAQMPYHKNVWFLSDRTCLVSEFENLPQEIKKHLTPKVINEQQLLASFTEMLIHEVADPLRRLKPDSVEVATVKTLMLLKPTCLREIDGDYLSTETDIKSVNDVRNRVINGLYSHYIKNGMDPEQLPIRVSEILNLTGGVEQCAARALEEMHPTRVFNLSSFDPYSSNVIFGYYRDV | not soluble
GMEVNRLSALTPPMGWNSWDCYGASVTEEEVLGNAEYMANHLKKYGWEYIVVDIQWYEPTANSSAYNPFAPLCMDEYGRLLPATNRFPSAKNGAGFKPLSDAIHDLGLKFGIHIMRGIPRQAVYENSPVLGSTKTAREIAHTNSICPWNTDMYGVDPTKEGAQSYYNSLFELYAQWGVDFVKVDDIAASRLYDTHLEEIKMIQRAIQACGRPMVLSLSPGPAPIKYAHHFKTNANMWRITDDFWDDWSLLYQMFERCEVWEKHIGTGHWPDCGMLPLGHIGIRSVDGPGGDRWTRFTKDEQLTMMNLWAICHSPLMFGGELRDNDEWTLSLLTNEGILSINQKSVLNRFVYREEDKVAWAANGRNGEAYVALFNLHDQQKTLQFRLDMVGIMETVQLFNVWDRSFLQSLAPSESFQIELKPHQSMMLKLSPDR | soluble
MAGEAGQPSEPLNLLAGMAAAPWDYDFFQALRRIECESPQLPRLGHSVRLADDPLRLGQKPDCTFAPSTLASVSQAGTAAVPRLDQFFFGLTGPNGPLPLHLTEYARERQRNVNDATFKRFMDVFHHRLLTLFYRAWAEARPEISHDRIDDDYWSARLAALSGRGMPSLRGREPLADTARYYYTGHLAAQTRYPDGLRVILAEYFEVPVAVEEYVGQWLELPERSRLGVDSTSLGMDVCLGTHVWDRQHKFRLRLGPLDLDQYQRFLPDGDHFVELAAWVAEYLGEELDWDVNLVLQRHEVPPLGLQGGGRLGFNTWLGDPGQDARDLLLARQYATARPHEHKEKEHE | not soluble
MAKKKKKKSFNTTRPTDPPVYPVTVPFLGHIVQFGKNPLEFMQRCKRDLKSGVFTISIGGQRVTIVGDPHEHSRFFSPRNEILSPREVYTIMTPVFGEGVAYAAPYPRMREQLNFLAEELTIAKFQNFVPAIQHEVRKFMAENWKEDEGVINLLEDCGAMIINTACQCLFGEDLRKRLNARHFAQLLSKMESSLIPAAVFMPWLLRLPLPQSARCREARAELQKILGEIIVAREKEEASKDNNTSDLLGGLLKAVYRDGTRMSLHEVCGMIVAAMFAGQHTSTITTSWSMLHLMHPKNKKWLDKLHKEIDEFPAQLNYDNVMDEMPFAERCVRESIRRDPPLLMVMRMVKAEVKVGSYVVPKGDIIACSPLLSHHDEEAFPNPRLWDPERDEKVDGAFIGFGAGVHKCIGQKFALLQVKTILATAFREYDFQLLRDEVPDPDYHTMVVGPTLNQCLVKYTRKKKLPSHHHHHH | soluble
MTKFIGCIDLHNGEVKQIVGGTLTSKKEDVPKTNFVSQHPSSYYAKLYKDRDVQGCHVIKLGPNNDDAAREALQESPQFLQVGGGINDTNCLEWLKWASKVIVTSWLFTKEGHFQLKRLERLTELCGKDRIVVDLSCRKTQDGRWIVAMNKWQTLTDLELNADTFRELRKYTNEFLIHAADVEGLCGGIDELLVSKLFEWTKDYDDLKIVYAGGAKSVDDLKLVDELSHGKVDLTFGSSLDIFGGNLVKFEDCCRWNEKQG | soluble
MSVDEKPIKIKVEKVSKIFGKQTKKAVQMLANGKAKKEILKATGSTVGVNQADFEVYDGEIFVIMGLSGSGKSTLVRMLNRLIEPTAGNIYIDGDMITNMSKDQLREVRRKKISMVFQKFALFPHRTILENTEYGLELQGVDKQERQQKALESLKLVGLEGFEHQYPDQLSGGMQQRVGLARALTNDPDILLMDEAFSALDPLIRKDMQDELLDLHDNVGKTIIFITHDLDEALRIGDRIVLMKDGNIVQIGTPEEILMNPSNEYVEKFVEDVDLSKVLTAGHIMKRAETVRIDKGPRVALTLMKNLGISSIYAVDKQKKLLGVIYASDAKKAAESDLSLQDILNTEFTTVPENTYLTEIFDVVSDANIPIAVVDEKQRMKGIVVRGALIGALAGNNEYINAEGT | not soluble
MGSDKIHHHHHHVSPRIVIVGAGPGGMATAIRLAGQGYQVEIFEAVDRPGGRMRGFSLGDYHFDTGPTILQVPRVYDELFSSAGLRFSDYVTLIRLDPNTRIRFWDGEYLDLTSNIAAFKAQLARFDPALPAEFERWYIEHIRKNVVGYEPYLGTPVRSPLVYLKPREIAAALAFRPWESLYDHFKRFFRDERVVYALSYQAKYLGMHPTACSSVFSLVTFLEFADGIWHPRGGFRALAAGLAKAATDLGVVIHYNSPVKQVLVEEGRACGVELVGGERIKADAVVVNADFGHALTHIIPPHARGTYTDQKLNSMEFSCSTFMLYLGVNRRWDHLPHHQLYLSANIRRNDPLWAKSAVLDEDDPSFYVCNPTIVDPTNAPPGHSTLFVLVPVPNLRYPVDWAAVEQRYRDLIIRQMAKLGFEDVERHIVVERRYTAETWRDEHHTYLGAVFNLIHSWSQLGPFRPHIRHNGARNLYWIGGAVHPGSGLMTILEAAKSAVHFIGEDLPLHQTTAVAH | not soluble
MGSDKIHHHHHHMLNMDFSRRVVIRTHEQHWVPSPAAGVERKPLAREEAERGHATSVVRYKPGSSFSTHEHPLGEEILVLEGVFSDETGHYPAGTYIRNPPGSSHAPFSEEGCTLLVKLHQFDPRDTATVRIDTNSGHWLPGIGGLQVMPLHEFEHERVALVKWPPNEAFQPHRHFGGEEIFVLSGEFRDEHGRYPAGSWIRSPHMSQHHPFVEQETVIWVKTGHLPVNHSPET | not soluble
MAHHHHHHSLIKSMTGFSRVEKVSGPYQFRVEMKSLNSKGLNIINQLPGYLSMKEIELNNLVQEYVSRGKVQTRVQVKFLEPPKVLEIDKNVVRAYYSMLDEIVGELSLPEPVKLSDLLNFREVFRIELSDEEIENIWNHLVPILREALEKLVEERKKEGQKIGADLKRILEDLSSRVEEIEKISDQLPALYREKIKEEVEKILPQDVSVKEDILENHVAFMATKADIREEITRLRSHIKRALELIESDEPVGMNLDFLGQEMLRELNTILSKSISGEITSLALEGKVLVSQFREQIQNVEEG | soluble
MLEKLWPFGRSRVRKAVEEALEKAFQDVGEVLEPLSELSEHEDHYLLRVEVPGLGPENLEVRLEGDQLVIEGEKREEKRAKHLAEIVYGRIYRAYLLPKDAKKEGIEARLAKGVLEVRIPREKRPEEPPVRIPIQES | soluble
GMSDIKKLGSSWIINWFFGFNQIPTNEDSSIYMKSVLTCAKADGVISPEEKDWALGFCASWGVADWVIEDLKTYEADEALEEVIARSPQVSMAQRDILLSAIWVSAADGELHEKEKAKIRKMATILGIKEEIVDQLEQLYYYEAALRQKRLNLLYPQKSPY | soluble
MDALNNKLYFIDSTKHKIFVEQIINGMHDWVRVIDINDNIIFVNESMAKALGKNVIGEKCYKAIGKSEPCENCTSRKAVFEGTIQAKEEIIGDRIFSVKSSPIRDENGQITAVVEVLRDITEMKKMQKKILEHNQKLQSELNMARRLQCSLLPKELPQDKIDFSYVYRPCEAIGGDFLDIFKIDDEHIGIYIADVSGHGVPASMLTVFLRSSINKKTLSPAEALNQLYKEFNRDYYDQELYITIFYAIIDTKNKNIIYSNAGHNASPVLFNHESHRFDILRIPGVPISDWVDNPEYTEKSISIEKGDRLFMYTDGIVELRNNKGEQFGEERLLNILLGEKMPPAMTLDRIIEAAMEFANIKNFNKIIDDITMALLEIL | soluble
MKYQVLLYYKYTTIEDPEAFAKEHLAFCKSLNLKGRILVATEGINGTLSGTVEETEKYMEAMQADERFKDTFFKIDPAEEMAFRKMFVRPRSELVALNLEEDVDPLETTGKYLEPAEFKEALLDEDTVVIDARNDYEYDLGHFRGAVRPDIRSFRELPQWIRENKEKFMDKKIVTYCTGGIRCEKFSGWLLKEGFEDVAQLHGGIANYGKNPETRGELWDGKMYVFDDRISVEINHVDKKVIGKDWFDGTPCERYINCANPECNRQILTSEENEHKHLGGCSLECSQHPANRYVKKHNLTEAEVAERLALLEAVEVLEHHHHHH | soluble
MGSDKIHHHHHHMDIGDKGEMLSLLKALVNIDSGSYYKEGVDRVGRMLTNAFKQIGFKVAIFKQERYGDHLLFTHPHAFDPKILLVAHMDTVFPVGTAAARPFQLIGTRAYGPGVIDMKGSLVACLYAIKALVGAQSPAVKQVAVLMTSDEEIGAPSGREIIEKIGVGKKAVLVMEPARKDGSLVTARRGGGRYTLNVTGRAAHSGVEPEKGRSAIEELAHKIMKLHALSDYKSGISVNVGVIEGGTAVNTVADRAKAKVDIRISRLEQAEPLDRDIRRICGTPDVDGTTIELKGGITRPPMERNAQTVALFQLIQQVASTIGLELTETATGGSSDASFTSALGIPTIDGMGPVGGFPHSEKEYLRVDTMQERTLLLAKVIERLSE | not soluble
MSLAANMYRVGDYVYFENSSSNPYLVRRIEELNKTANGNVEAKVVCLFRRRDISSSLNSLADSNAREFEEESKQPGVSEQQRHQLKHRELFLSRQFESLPATHIRGKCSVTLLNETDILSQYLEKEDCFFYSLVFDPVQKTLLADQGEIRVGCKYQAEIPDRLVEGESDNRNQQKMEMKVWDPDNPLTDRQIDQFLVVARAVGTFARALDCSSSIRQPSLHMSAAAASRDITLFHAMDTLQRNGYDLAKAMSTEGHHHHHH | not soluble
SMAENGDNEKMAALEAKICHQIEYYFGDFNLPRDKFLKEQIKLDEGWVPLEIMIKFNRLNRLTTDFNVIVEALSKSKAELMEISEDKTKIRRSPSKPLPEVTDEYKNDVKNRSVYIKGFPTDATLDDIKEWLEDKGQVLNIQMRRTLHKAFKGSIFVVFDSIESAKKFVETPGQKYKETDLLILFKDDYFAKKNE | soluble
MATEGMILTNHDHQIRVGVLTVSDSCFRNLAEDRSGINLKDLVQDPSLLGGTISAYKIVPDEIEEIKETLIDWCDEKELNLILTTGGTGFAPRDVTPEATKEVIEREAPGMALAMLMGSLNVTPLGMLSRPVCGIRGKTLIINLPGSKKGSQECFQFILPALPHAIDLLRDAIVKVKEVHDRSHHHHHH | soluble
MAHHHHHHMLGKLGLRTEAYPFDFSRVTLDGLMHFIRNGFAEGFYPPGPLPYRPECVGPWVLFRGQHTAFAHFDLNDPHVQAHFQVKMRRFDAVLNSPERPVTFFRTVTARYPQQELALALDLEEAVARRNPSLDFRIVFMVHDQGLRANAVQLAPLSPRVTLWTLQYRGLPGDTLFDRTHTAYRTVMMHSVAESNWPAVNVGVATPPPATVAPAEARDFESGALRCDGAIRTDDVPLSDLTVDRFPWRSHDNLALIDGVASVGGTCAGIGSTKMLEDASAALQVEGRVRRKCRYCGDATYHAAGRPFRTERPFTDEEDQLVLIHLYQILTGGDKVAAVEKLAHEMRRGTYEVICRIQYLTNSSTKLMDSIDPASPSDS | not soluble
WRKKRKDAKNNEVSFSQIKPKKSKLIRVENFEAYFKKQQADSNCGFAEEYEDLKLIGISLPKYAAEIAENRGKNRYNNVLPYDISRVKLSVQTHSTDDYINANYMPGYHSKKDFIATQGPLPNTLKDFWRMVWEKNVYAIVMLTKCVEQGRTKCEEYWPSKQAQDYGDITVAMTSEVVLPEWTIRDFVVKNMQSSESHPLRQFHFTSWPDHGVPDTTDLLINFRYLVRDYMKQIPPESPILVHCSAGVGRTGTFIAIDRLIYQIENENTVDVYGIVYDLRMHRPLMVQTEDQYVFLNQCVLDIIRAQKDSKVDLIYQNTTAMTIYENLERVSMFGKANGYIA | soluble
